# Data as given in US5726017.
# Assays:
# [1] = target: GST-gag (HIV-1 gag polyprotein, strain LAI) (HIV-1 (LAI)) (UniProt P03348); experiment: filter; conditions: for Kd: 5 mM MgCl2, 37 C
# [2] = target: GST-gag (HIV-1 gag polyprotein, strain LAI) (HIV-1 (LAI)) (UniProt P03348); experiment: competition; conditions: 1 nM gag, scale: fold excess unlabeled Psi for 50% competition
# [3] = system: glutathione S-transferase (GST); experiment: filter; conditions: GST alone, low affinity
# [4] = 50 mM Tris pH 7.5, 140 mM KCl, 5 mM NaCl
substance,measurement,setting,value
GGGAAAAGCGAAUCAUACACAAGANNNNNNNNNNNNNNNNNNNNNNNNNNNNNNNNNNNNNNNNNNNNNNNNNNGCUCCGCCAGAGACCAACCGAGAA [SELEX B round 0 RNA pool],Kd,[1]; [4],1000 nM
GGGAAAAGCGAAUCAUACACAAGANNNNNNNNNNNNNNNNNNNNNNNNNNNNNNNNNNNNNNNNNNNNNNNNNNGCUCCGCCAGAGACCAACCGAGAA [SELEX B round 4 RNA pool],fold excess of unlabeled Psi for 50% competition,[2]; 150 pM labeled pool,74
same,Kd,[1]; [4],8.5 nM
GGGAAAAGCGAAUCAUACACAAGANNNNNNNNNNNNNNNNNNNNNNNNNNNNNNNNNNNNNNNNNNNNNNNNNNGCUCCGCCAGAGACCAACCGAGAA [SELEX B round 8 RNA pool],fold excess of unlabeled Psi for 50% competition,[2]; 150 pM labeled pool,630
same,Kd,[1]; [4],1.1 nM
GGGAGACAAGAAUAAACGCUCAANNNNNNNNNNNNNNNNNNNNNNNNNNNNNNNNNNNNNNNNNNNNNNNNNNUUCGACAGGAGGCUCACAACAGGC [SELEX A round 0 RNA pool],binding signal (% bound at 10 nM gag),"[1]; 4.0% at 0.1 nM, 6.0% without gag, negative control",3.5
GGGAGACAAGAAUAAACGCUCAANNNNNNNNNNNNNNNNNNNNNNNNNNNNNNNNNNNNNNNNNNNNNNNNNNUUCGACAGGAGGCUCACAACAGGC [SELEX A round 10 RNA pool],Kd,"[1]; 50 mM Tris pH 7.5, 200 mM KOAc, 10000-fold tRNA",1.5 nM
GGGAGACAAGAAUAAACGCUCAAUCUCGUAUCAGCACACCGGUACAAAGAGGAUGCAAAUNCGCCUGUGACUUCGACAGGAGGCUCACAACAGGC [SW10.12],binding signal (% bound at 10 nM gag),"[1]; 0.6% at 0.1 nM, 0.6% without gag",11.2
"HIV-1 Psi RNA (456 nt, transcribed from XhoI-linearized pBsPVR789)",fold excess of unlabeled Psi for 50% competition,[2]; 150 pM labeled Psi,20
same,binding signal (% bound at 10 nM gag),"[1]; 13.4% at 0.1 nM, 14.7% without gag, positive control",87
same,Kd,"[1]; SELEX A experiment, 50 mM Tris pH 7.5, 200 mM KOAc",1.1 nM
same,Kd,"[1]; SELEX B experiment, 50 mM Tris pH 7.5, 140 mM KCl, 5 mM NaCl",5.2 nM
random RNA,Kd,[3],> 10000 nM
